pKd: −log10 of the molar value.

This note sets out measurements from paper PMC3910112.

The target of the assay is fluorescein-labelled mouse EAG1 eag domain (FL-eag) (mouse) (UniProt Q60603). In words: fluorescence polarisation. In general terms: Fluorescence polarisation rises when a labelled molecule tumbles more slowly, as on binding a larger partner.

The pKd is the negative decadic logarithm of the Kd, by convention in mol/L. High values mean a low Kd, low ones a high Kd. In the case of “mouse EAG1 (mEAG1) CNBHD (residues 552-724) (from UniProt Q60603 552-724) (domain or fragment)”, the pKd was 4.88.
